Assay results published in US20140072613A1 (published 2014).

Tests used:
Experiment in all cases: cell-based or functional assay
[1] = target: T1, Fms(Y969C)(h) (human, UniProt P07333 538-972, limits assumed)
T1 sequence (looked up): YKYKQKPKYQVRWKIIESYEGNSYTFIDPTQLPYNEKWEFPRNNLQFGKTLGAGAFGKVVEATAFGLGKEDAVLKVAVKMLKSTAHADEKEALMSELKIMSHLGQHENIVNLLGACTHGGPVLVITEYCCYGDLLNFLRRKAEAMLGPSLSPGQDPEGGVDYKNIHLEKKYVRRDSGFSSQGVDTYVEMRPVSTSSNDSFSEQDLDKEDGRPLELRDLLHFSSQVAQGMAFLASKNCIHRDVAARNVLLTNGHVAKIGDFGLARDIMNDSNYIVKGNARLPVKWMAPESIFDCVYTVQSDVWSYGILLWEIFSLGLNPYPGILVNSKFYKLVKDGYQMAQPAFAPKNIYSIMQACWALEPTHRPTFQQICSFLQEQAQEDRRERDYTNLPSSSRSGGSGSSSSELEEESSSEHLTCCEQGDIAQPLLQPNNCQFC

[2] = target: T2, MKK6(h) (human, UniProt P52564 1-334)
T2 sequence (looked up): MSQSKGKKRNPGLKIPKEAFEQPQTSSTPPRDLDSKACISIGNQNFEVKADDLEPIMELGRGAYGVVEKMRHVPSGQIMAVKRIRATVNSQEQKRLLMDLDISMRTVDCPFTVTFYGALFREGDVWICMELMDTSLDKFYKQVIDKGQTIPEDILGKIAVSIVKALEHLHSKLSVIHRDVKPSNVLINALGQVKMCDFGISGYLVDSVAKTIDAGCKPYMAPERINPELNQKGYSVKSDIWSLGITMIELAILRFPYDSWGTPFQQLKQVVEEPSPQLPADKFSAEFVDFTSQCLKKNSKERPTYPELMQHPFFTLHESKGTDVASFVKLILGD

[3] = target: MRCKα(h) (human, UniProt Q5VT25 1-473, limits assumed)
[4] = target: mTOR/FKBP12(h) (human, UniProt P42345 1362-2549; P62942 1-108)
[5] = target: NEK7(h) (human, UniProt Q8TDX7 1-302)
[6] = target: Rsk4(h) (human, UniProt Q9UK32 1-745, limits assumed)
[7] = target: T3, ZAP-70(h) (human, UniProt P43403 1-619)
T3 sequence (looked up): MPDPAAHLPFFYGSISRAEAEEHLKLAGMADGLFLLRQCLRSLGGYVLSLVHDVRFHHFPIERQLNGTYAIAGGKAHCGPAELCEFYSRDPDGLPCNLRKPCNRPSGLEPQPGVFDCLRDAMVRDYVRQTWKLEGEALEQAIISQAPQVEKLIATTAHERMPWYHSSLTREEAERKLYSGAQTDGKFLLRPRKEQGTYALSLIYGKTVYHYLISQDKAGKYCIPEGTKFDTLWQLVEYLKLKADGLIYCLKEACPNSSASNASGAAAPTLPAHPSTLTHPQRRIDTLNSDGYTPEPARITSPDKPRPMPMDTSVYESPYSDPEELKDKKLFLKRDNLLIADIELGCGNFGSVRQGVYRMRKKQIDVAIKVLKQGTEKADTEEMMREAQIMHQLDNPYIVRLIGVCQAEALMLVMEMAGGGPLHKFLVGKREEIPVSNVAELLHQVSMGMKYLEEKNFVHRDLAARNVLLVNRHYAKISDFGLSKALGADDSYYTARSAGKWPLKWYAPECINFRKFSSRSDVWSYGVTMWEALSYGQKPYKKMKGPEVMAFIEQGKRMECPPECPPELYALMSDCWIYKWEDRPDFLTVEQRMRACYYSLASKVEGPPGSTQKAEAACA

[8] = target: T4, eEF-2K(h) (human, UniProt O00418 1-725, limits assumed)
T4 sequence (looked up): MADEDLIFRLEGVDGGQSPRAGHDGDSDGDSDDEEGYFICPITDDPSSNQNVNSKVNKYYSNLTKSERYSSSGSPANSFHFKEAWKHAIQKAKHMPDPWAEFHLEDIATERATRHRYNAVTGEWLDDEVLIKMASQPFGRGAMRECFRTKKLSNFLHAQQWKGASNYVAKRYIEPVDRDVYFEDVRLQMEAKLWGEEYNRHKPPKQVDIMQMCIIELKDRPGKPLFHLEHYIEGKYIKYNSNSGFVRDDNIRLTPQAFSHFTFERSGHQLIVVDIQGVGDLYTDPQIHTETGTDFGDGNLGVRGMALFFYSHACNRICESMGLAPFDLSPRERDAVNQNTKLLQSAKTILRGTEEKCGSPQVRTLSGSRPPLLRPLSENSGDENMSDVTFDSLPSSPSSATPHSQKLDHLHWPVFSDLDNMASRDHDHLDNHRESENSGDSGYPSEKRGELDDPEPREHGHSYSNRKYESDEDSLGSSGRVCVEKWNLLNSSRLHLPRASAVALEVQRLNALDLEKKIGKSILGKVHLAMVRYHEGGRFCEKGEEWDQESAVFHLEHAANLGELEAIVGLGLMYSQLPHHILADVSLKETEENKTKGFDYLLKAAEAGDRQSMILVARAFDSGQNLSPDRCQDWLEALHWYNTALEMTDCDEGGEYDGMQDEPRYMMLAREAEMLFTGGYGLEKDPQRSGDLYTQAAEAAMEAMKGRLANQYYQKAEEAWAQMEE

[9] = target: EGFR(h) (human, UniProt P00533 696-1210, limits assumed)
[10] = target: T5, EphB4(h) (human, UniProt P54760 561-987, limits assumed)
T5 sequence (looked up): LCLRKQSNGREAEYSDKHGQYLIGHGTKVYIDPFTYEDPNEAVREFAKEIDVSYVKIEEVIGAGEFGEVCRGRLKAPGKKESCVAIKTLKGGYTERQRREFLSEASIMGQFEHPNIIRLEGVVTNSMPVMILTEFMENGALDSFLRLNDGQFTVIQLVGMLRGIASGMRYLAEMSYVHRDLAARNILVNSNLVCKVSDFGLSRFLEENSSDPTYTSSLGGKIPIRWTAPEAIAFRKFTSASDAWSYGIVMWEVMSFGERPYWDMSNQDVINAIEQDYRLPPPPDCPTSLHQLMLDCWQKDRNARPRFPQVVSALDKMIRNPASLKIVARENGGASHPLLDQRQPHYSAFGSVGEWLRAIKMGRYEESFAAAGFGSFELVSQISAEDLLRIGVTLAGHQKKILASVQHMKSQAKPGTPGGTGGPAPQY

Chain of mTOR/FKBP12(h) (P42345 1362-2549 limits assumed, chain 1 of 2): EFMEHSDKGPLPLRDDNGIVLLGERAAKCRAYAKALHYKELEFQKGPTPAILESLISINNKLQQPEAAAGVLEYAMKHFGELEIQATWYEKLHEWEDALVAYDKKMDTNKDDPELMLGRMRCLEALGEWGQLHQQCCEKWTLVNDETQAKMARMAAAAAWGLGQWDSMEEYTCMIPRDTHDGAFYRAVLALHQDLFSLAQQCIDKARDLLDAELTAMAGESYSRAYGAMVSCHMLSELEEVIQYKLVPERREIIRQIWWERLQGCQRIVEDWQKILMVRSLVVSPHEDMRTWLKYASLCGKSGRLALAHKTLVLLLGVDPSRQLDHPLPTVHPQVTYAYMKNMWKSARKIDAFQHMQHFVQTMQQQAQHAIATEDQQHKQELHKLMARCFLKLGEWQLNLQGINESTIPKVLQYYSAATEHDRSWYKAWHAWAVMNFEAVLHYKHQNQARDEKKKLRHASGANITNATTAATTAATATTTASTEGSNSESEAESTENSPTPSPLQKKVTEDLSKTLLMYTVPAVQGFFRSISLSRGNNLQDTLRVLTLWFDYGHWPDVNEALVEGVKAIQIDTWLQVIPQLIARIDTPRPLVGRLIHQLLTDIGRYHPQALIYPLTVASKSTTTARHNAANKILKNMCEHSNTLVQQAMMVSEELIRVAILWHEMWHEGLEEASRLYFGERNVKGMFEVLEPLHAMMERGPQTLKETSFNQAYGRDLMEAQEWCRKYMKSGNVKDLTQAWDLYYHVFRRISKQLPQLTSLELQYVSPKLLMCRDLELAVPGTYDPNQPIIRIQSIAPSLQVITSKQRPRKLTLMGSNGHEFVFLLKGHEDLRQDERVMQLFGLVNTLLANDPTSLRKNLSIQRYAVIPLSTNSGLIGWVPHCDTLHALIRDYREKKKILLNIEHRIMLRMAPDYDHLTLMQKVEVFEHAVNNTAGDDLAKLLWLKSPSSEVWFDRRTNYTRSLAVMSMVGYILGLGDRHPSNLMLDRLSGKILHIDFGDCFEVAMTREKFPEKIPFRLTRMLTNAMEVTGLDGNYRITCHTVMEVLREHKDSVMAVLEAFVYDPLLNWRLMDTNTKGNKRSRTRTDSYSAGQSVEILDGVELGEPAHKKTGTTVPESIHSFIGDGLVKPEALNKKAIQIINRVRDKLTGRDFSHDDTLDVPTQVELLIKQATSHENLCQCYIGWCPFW
Chain of mTOR/FKBP12(h) (P62942 whole entry, chain 2 of 2): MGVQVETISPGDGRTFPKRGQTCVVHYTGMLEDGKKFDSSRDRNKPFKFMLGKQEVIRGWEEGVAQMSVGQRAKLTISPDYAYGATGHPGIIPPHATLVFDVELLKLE
Chain of NEK7(h) (Q8TDX7 whole entry): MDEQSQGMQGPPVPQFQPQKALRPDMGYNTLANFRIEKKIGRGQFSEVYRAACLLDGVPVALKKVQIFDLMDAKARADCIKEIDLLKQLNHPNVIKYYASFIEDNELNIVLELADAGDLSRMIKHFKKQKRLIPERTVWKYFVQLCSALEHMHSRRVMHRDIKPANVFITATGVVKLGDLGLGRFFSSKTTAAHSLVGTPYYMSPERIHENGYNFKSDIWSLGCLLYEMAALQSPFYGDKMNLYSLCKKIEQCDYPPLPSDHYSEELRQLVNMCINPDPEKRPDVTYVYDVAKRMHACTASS
Chain of Rsk4(h) (Q9UK32 whole entry): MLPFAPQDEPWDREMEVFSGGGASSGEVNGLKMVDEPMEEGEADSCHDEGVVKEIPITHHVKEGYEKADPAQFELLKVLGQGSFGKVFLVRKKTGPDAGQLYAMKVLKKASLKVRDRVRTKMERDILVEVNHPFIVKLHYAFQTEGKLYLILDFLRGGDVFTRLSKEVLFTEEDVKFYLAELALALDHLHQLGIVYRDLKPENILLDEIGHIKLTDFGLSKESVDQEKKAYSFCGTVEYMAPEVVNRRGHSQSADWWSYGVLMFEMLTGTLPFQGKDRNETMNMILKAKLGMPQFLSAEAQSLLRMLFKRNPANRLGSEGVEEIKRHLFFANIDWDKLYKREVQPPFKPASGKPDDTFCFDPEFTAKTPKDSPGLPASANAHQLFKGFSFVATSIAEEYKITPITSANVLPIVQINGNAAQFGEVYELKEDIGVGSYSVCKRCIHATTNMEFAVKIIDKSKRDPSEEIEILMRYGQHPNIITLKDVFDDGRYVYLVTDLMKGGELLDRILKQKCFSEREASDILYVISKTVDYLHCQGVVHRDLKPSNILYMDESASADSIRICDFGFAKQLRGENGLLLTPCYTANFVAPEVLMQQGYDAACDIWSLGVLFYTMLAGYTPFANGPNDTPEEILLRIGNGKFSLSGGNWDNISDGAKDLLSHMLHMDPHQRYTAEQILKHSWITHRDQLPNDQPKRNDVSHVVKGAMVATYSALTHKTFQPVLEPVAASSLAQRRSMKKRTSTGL
Chain of MRCKα(h) (Q5VT25 1-473 limits assumed): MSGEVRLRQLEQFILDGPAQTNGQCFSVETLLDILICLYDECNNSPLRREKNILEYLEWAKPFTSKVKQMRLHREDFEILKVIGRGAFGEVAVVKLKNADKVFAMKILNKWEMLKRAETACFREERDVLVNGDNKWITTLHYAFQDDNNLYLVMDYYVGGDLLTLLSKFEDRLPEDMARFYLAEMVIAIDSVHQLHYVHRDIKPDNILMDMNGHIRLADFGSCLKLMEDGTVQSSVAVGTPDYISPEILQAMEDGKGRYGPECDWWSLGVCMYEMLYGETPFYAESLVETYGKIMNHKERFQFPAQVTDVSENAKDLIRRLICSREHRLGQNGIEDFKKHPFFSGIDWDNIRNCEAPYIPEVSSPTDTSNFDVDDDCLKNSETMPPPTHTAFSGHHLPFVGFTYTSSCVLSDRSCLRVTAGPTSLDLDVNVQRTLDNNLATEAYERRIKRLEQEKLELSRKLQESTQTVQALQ

Binder	% activity, 100 µM [1] [%]	% activity, 100 µM [2] [%]	% activity, 100 µM [3] [%]	% activity, 100 µM [4] [%]	% activity, 100 µM [5] [%]	% activity, 100 µM [6] [%]	% activity, 100 µM [7] [%]	% activity, 100 µM [8] [%]	% activity, 100 µM [9] [%]	% activity, 100 µM [10] [%]
FAKLAARLYRKALARQLGVAA [MMI-0300]	72	48	104	145	84	90	75	91	21	44
KAFAKLAARLYRKALARQLGVAA [MMI-0400]	91	44	97	125	87	91	33	43	16	28
